In the supplement of paper PMC9732359:
± gives the uncertainty stated by the source.

Assay: protein stability index of a GFP-peptide fusion (yeast GPS) (PSI 1-4); higher = more stable; sorted into four equal gates, so the index is relative within each strain
Method in brief: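 Plasmids isolated from each sorting gate were PCR-amplified and Illumina-sequenced, and barcodes assigned the reads to strains. The gates, four of equal size, were set by GFP/Cherry fluorescence ratio on mid-log cultures in leucine-free medium. These cultures were yeast carrying a pooled library of tiled 17-residue yeast protein peptides fused downstream of GFP on a plasmid that also expresses Cherry. The protein stability index is the sum of every gate's read frequency times its gate number.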

Sequence	protein stability index (doa10∆)	protein stability index (pdr5∆)	protein stability index (san1∆)	protein stability index (ubr1∆)
FRGNISQPKIGYGSNKK [RPL32]	2.88 ± 0.094	2.88 ± 0.06	2.88 ± 0.067	2.89 ± 0.049
FRKKRKFELGRQPANTK [RPS8A]	2.88 ± 0.063	3.12 ± 0.066	3.13 ± 0.082	3.16 ± 0.065
FRNPTPLLSNYASKINR [RGR1]	1.44 ± 0.058	1.6 ± 0.045	1.34 ± 0.11	1.66 ± 0.048
FRTDMLQVADKFFRVKY [SMC3]	1.92 ± 0.068	2.49 ± 0.066	1.77 ± 0.076	2.12 ± 0.051
FSHLAGGKIINKLGNDP [BRR2]	2.94 ± 0.19	3.1 ± 0.19	2.91 ± 0.085	3.02 ± 0.077
FSQKEMAFNLLGLLTPE [FAS2]	2.52 ± 0.077	2.32 ± 0.072	2.18 ± 0.12	2.42 ± 0.064
FSWISVVNDLVGEKLVV [SIR3]	3.42 ± 0.13	2.58 ± 0.14	3.26 ± 0.072	2.84 ± 0.14
FTIRGFKQKLNELLKCK [MTW1]	3.05 ± 0.059	2.92 ± 0.073	2.93 ± 0.064	3.17 ± 0.046
FTNELKAELDRYKRENQ [SEM1]	3.09 ± 0.16	3.38 ± 0.14	2.98 ± 0.11	3.41 ± 0.24
FVAATTNAGYTIELAGG [FAS1]	2.82 ± 0.063	2.97 ± 0.059	2.9 ± 0.11	2.68 ± 0.062
FVCLSCSHIFTSDQKNK [RPB9]	2.43 ± 0.082	2.28 ± 0.093	2.04 ± 0.11	2.55 ± 0.066
FVHYGEIKNDFIMVKGC [RPL3]	2.06 ± 0.094	2.14 ± 0.067	2.1 ± 0.1	2.38 ± 0.076
FVRGDSKIFRFQNSKSA [RPL24A]	2.31 ± 0.053	2.63 ± 0.057	2.31 ± 0.059	2.43 ± 0.051
FVSRPDRTMLAPMDFAI [FAS1]	2.68 ± 0.12	2.82 ± 0.11	2.63 ± 0.11	2.68 ± 0.11
FVYNKVNETEAILYTKP [YGR119C/NUP57]	2.76 ± 0.084	3.06 ± 0.072	2.74 ± 0.056	2.97 ± 0.07
FYLMVSSLSFGPENALN [YJL039C/NUP192]	1.68 ± 0.048	1.37 ± 0.047	1.39 ± 0.12	1.31 ± 0.051
FYMKKDAVEGVSECIIL [RPO31]		3.07 ± 0.29	2.86 ± 0.14	
GAAANNNDQKRQQAYKT [YJL041W/NSP1]	3.06 ± 0.063	3.02 ± 0.056	3.09 ± 0.042	3.22 ± 0.066
GAAFKVISNLVPKLESS [YJL039C/NUP192]	2.86 ± 0.16	2.59 ± 0.11	2.58 ± 0.24	2.18 ± 0.12
GAALKDIEIVRVNKNAP [FAS2]	3.09 ± 0.092	3.24 ± 0.12	3.21 ± 0.089	3.31 ± 0.084
GAIIGWTRGTGLMSANN [FAS2]	2.89 ± 0.087	2.83 ± 0.083	3.08 ± 0.091	2.78 ± 0.29
GALVDRTQPWSIMPDLY [RPS0A]	2.71 ± 0.09	2.82 ± 0.091	2.87 ± 0.062	3.11 ± 0.032
GASGEERLMSRPFGVAL [PUP2]	3.36 ± 0.14	3.24 ± 0.079	2.93 ± 0.073	3.13 ± 0.05
GAVSLNPSITRLEEESS [RRP4]	3 ± 0.2	3.03 ± 0.14	3.07 ± 0.1	2.35 ± 0.08
GCLVKREDLNKAEYVDQ [RPO31]		3.13 ± 0.21		
GCYFEEKRYDDKLLDFI [CSN12]	3.34 ± 0.06	2.92 ± 0.098	3.04 ± 0.066	3.04 ± 0.077

Sequence	protein stability index (doa10∆)	protein stability index (pdr5∆)	protein stability index (san1∆)	protein stability index (ubr1∆)
GDKDTRADIVRNIILEA [ISW2]	2.1 ± 0.1	2.41 ± 0.06	2.09 ± 0.099	2.56 ± 0.11
GDLLNAEVQSLFQDGSA [RRP4]	2.18 ± 0.096	2.74 ± 0.13	2.94 ± 0.068	2.37 ± 0.096
GDMTNSDAQSNLGSNVR [REC8]	2.92 ± 0.28	3.52 ± 0.15	2.87 ± 0.17	3.25 ± 0.096
GDNTSDVDMEDRNLTEF [RRI1]		3.08 ± 0.13	3.27 ± 0.18	3.19 ± 0.058
GDPFDYKAQADTFYMNV [RPB3]	3.4 ± 0.1	3.44 ± 0.1	3.33 ± 0.063	3.36 ± 0.083
GDTIELAIIGDENPDLL [PRE8]	3.56 ± 0.22	3.11 ± 0.17		
GEHISAIVPGQSISGTL [SWP82]	3.41 ± 0.15	3.05 ± 0.13	2.97 ± 0.17	
GELVLDIEVPDVNALKF [SNF12]	3.06 ± 0.22	3.55 ± 0.12	2.77 ± 0.077	3.15 ± 0.11
GETMWVPIKSSKSGRIF [RPN13]	2.3 ± 0.11	2.6 ± 0.15	2.81 ± 0.068	
GETRMKMLNEFVKKTSE [SMC2]	3.28 ± 0.1	3 ± 0.092	2.91 ± 0.068	3.26 ± 0.082
GFDIQKSCEPVSISTSV [SIR4]	1.36 ± 0.091	1.73 ± 0.13	1.51 ± 0.27	1.56 ± 0.07
GFGRKGKAKGDIPGVRF [RPS23A]	3.19 ± 0.14	3.23 ± 0.13	3.42 ± 0.052	3.22 ± 0.094
GFSTGIGDTIADGPTMR [RPO21]	2.3 ± 0.13	3.15 ± 0.17	3.03 ± 0.094	2.99 ± 0.15
GGAKSRGVRPYKHIDAS [RPS19A]	3.12 ± 0.11	3.38 ± 0.14	2.93 ± 0.082	2.98 ± 0.12
GGDTCSSDGALCMDSSY [POP1]	2.24 ± 0.054	2.54 ± 0.051	1.83 ± 0.082	2.27 ± 0.036
GGDWERRNRYKTYYGIH [RPN7]	1.24 ± 0.049	1.4 ± 0.074	1.29 ± 0.13	1.18 ± 0.044
GGFTNLTSQAPQTTQMF [YDL088C/ASM4]	3.35 ± 0.12	3.09 ± 0.091	3.38 ± 0.077	3.08 ± 0.068
GGGHVSQVYAIRQAIAK [RPS16A]	2.63 ± 0.05	2.85 ± 0.045	2.75 ± 0.053	2.62 ± 0.043
GGIETILEHTLFKGTGF [PRP8]	3.3 ± 0.22	3.28 ± 0.21	3.21 ± 0.14	3.47 ± 0.13
GGKIINKLGNDPSLNLK [BRR2]	2.27 ± 0.059	1.76 ± 0.073	1.91 ± 0.072	2.16 ± 0.057
GGLRPFGVSFIYAGYDD [PRE9]	2.44 ± 0.08	2.52 ± 0.075	2.26 ± 0.11	2.27 ± 0.083
GGLSGEESIKIYPLIKP [UBP6]	2.48 ± 0.12	2.68 ± 0.076	1.88 ± 0.15	2.16 ± 0.09
GGTSDMNYLLDNKINEI [CSI1]	2.85 ± 0.11	2.87 ± 0.087	3.17 ± 0.059	3.25 ± 0.078
GHDADDGYQLFHAEPSG [PUP2]	3.37 ± 0.19	2.97 ± 0.18	3.42 ± 0.079	3.1 ± 0.14
GIIITDQSNVQYYLSVL [BRR2]	3.32 ± 0.2	3.44 ± 0.19	3.07 ± 0.11	3.01 ± 0.13
GILDEIMFNHARIIRSE [RGR1]	2.75 ± 0.061	2.98 ± 0.071	3.08 ± 0.069	3.07 ± 0.032
